In this assay the target is T1, human GPC3 on tumor cell lines (HepG2, Huh-7, NCI-H661, MKN-45, NCI-H23, BxPC-3, NCI-H292) (human, UniProt P51654 25-554).
T1 construct: Endogenous GPC3 of human cancer cell lines; also called GPC3 on HepG2; GPC3 on Huh-7
Description: pHAb internalization assay on Huh-7 cells, flow cytometry (BD FACSArray, yellow laser); indirect readout that needs binding and uptake; concentration not given. As to the method: The assay was read on a BD FACSArray with a yellow laser (pHAb: excitation maximum at 532 nm, emission maximum at 560 nm). The internalization rate was determined by quantifying the internalization at 37° C. at different timepoints (0.5 h, 3 h, 24 h and 48 h) compared to 4° C. at 0.5 h (Table 10, FIG. 8A).
For orientation: Flow cytometry measures light scatter and fluorescence of single cells or particles in a stream.

The text below walks through data of US20240343823A1 (Ablynx, published 2024).

B1: A022600373 (bispecific antibody)
chain: DVQLVESGGGVVQPGGSLRLSCVASGYVHKINFYGWYRQAPGKEREKVAHISIGDQTDYADSAKGRFTISRDESKNTVYLQMNSLRPEDTAAYYCRALSRIWPYDYWGQGTLVTVSSGGGGSGGGGSGGGGSGGGGSEVQLVESGGGVVQPGGSLRLSCAASGFTFRSFGMSWVRQAPGKGPEWVSSISGSGSDTLYADSVKGRFTISRDNSKNTLYLQMNSLRPEDTALYYCTIGGSLSRSSQGTLVTVSSGGC
modifications: pHAb dye on the C-terminal GGC (degree of labeling 1)
notes: also called TCE01-20GS-ALB23002-GGC
For the molecule B1, the binding result is listed as “no binding”.
